Laboratory results reported in patent US7547662 (KIMBERLY CLARK WORLDWIDE, dated 2009).

Experiments:
[1] = biological target: T1, Bovine trypsin (Sigma Chemical Co.) (bovine, UniProt P00760 24-246); assay: ITC, binding agent injected into bovine trypsin, 293 K
T1 construct: Unlabelled in ITC; Oregon Green labelled in the library screening assay; also called bovine pancreatic trypsin
Procedure: (§1) Isothermal titration calorimetry (ITC) was performed with a VP-ITC instrument from MicroCal, Inc. Titrations were carried out by injecting 5 µL of a binding agent (at concentration ranges from 0.5 mM to 1.0 mM) into the 1.4 mL stirred reaction cell. Bovine trypsin (Sigma Chemical Co.) ranged in concentration from 10 to 30 μM in the cell. Both the inhibitor and the enzyme were in 20 mM sodium cacodylate (pH 6.9), 40 mM NaCl. Titrations were conducted at 20° C. Typical experimental conditions for the titrations were a 10 second injection period followed by a 240 second delay between injections for a total of 40 injections. Blank titrations of binding agent into buffer were performed in order to correct for heats of dilution and mixing.
(§2) The ability of three binding agents (SEQ ID NO:4, SEQ ID NO:33 and 35) was tested to ascertain whether they could effectively bind bovine trypsin. Binding was measured by isothermal titration calorimetry (ITC).
Figure 9: FIG. 9 is a graph illustrating the binding between the computer-generated loop i variant and bovine pancreatic trypsin as analyzed by ITC analysis. Binding reagents and trypsin were dialyzed into 20 mM sodium cacodylate (pH 6.9), 40 mM NaCl. The binding reagent was at a concentration of 1 mM and trypsin was used in the calorimeter cell at a concentration of 20 μM. The temperature was maintained at 20° C. 40 injections of 5 μL each were employed with a 240 second re-equilibrium time between injections.

[2] = biological target: T1, Bovine trypsin (Sigma Chemical Co.); assay: ITC, binding agent injected into bovine trypsin in the cell, 20 C
Procedure: as §1, §2

T1 sequence (P00760 24-246): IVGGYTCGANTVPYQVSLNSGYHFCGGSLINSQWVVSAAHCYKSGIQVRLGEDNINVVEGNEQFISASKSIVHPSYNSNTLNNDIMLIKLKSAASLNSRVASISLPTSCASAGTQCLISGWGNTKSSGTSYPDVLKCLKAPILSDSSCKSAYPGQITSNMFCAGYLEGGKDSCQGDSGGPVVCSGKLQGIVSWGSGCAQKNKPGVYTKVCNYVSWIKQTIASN

Row | Ka [1] | Stoichiometry [1] | ΔS [1] | binding result [2] | Binder
1 | 622000 M⁻¹ | 1.02 | -96.6 cal mol^-1 K^-1 | – | Loop i variant from computer search (parental binding agent with loop i ITAVCHK, SEQ ID NO:35) (designed binder, The protein was then made, expressed and purified, and tested by ITC; also called Loop i Variant Computer; computer-generated loop i variant; not shown: C-terminal hexa-histidine tag added by the vector construct) MDVQLQASGGGSVQAGGSLRLSCAASITAVCHKCAGWFRQAPGKEREGVAAINAGAAGTSYADSVKGRFTISQLAGAANVYLLMNSLEPEDTAIYYCAAGHAGAAGAATCGHGLSTAGAAGAPWGQGTQVTVSS
2 | 1.65e+06 M⁻¹ | 0.99 | -102 cal mol^-1 K^-1 | – | Loop i variant from library screening (parental binding agent with loop i RYLRYPS, SEQ ID NO:33) (designed binder, The clone came from a library in which loops i to v were randomised; also called Loop i variant Screening; Biological Screen; not shown: C-terminal hexa-histidine tag added by the vector construct) MDVQLQASGGGSVQAGGSLRLSCAASRYLRYPSCAGWFRQAPGKEREGVAAINAGAAGTSYADSVKGRFTISQLAGAANVYLLMNSLEPEDTAIYYCAAGHAGAAGAATCGHGLSTAGAAGAPWGQGTQVTVSS
3 | – | – | – | no binding | Parental binding agent (generic binding agent, SEQ ID NO:4, Ala/Gly loops) (designed binder, Camelid VHH-derived beta barrel scaffold, all five loops Ala/Gly; Expressed in E. coli as a monomeric C-terminal His-Tag fusion; not shown: C-terminal hexa-histidine tag added by the vector construct) MDVQLQASGGGSVQAGGSLRLSCAASAGAAGAACAGWFRQAPGKEREGVAAINAGAAGTSYADSVKGRFTISQLAGAANVYLLMNSLEPEDTAIYYCAAGHAGAAGAATCGHGLSTAGAAGAPWGQGTQVTVSS
